Results published in patent US20160097044A1, “Antimicrobial Enzyme Fusions Reduce Resistance and Kill Intracellular Staphylococcus aureus” (The United States of America, as Represented by the …, priority 2014, published 2016).

Tests used:
[1] = test system: S. aureus Newbould 305; assay: Minimum Inhibitory Concentration (MIC) assay; type: cell-based; conditions: Mastitis isolate S. aureus Newbould 305
Description: (§1) The Minimum Inhibitory Concentrations (MIC) of each protein for multiple S. aureus strains was determined as previously described (Jones et al. 1985. In: Manual of Clinical Microbiology, Eds. Balows et al. American Society of Microbiology, Washington D.C., pp. 972-977) with the following modifications. Enzymes were serially diluted two fold across a 96 well plate, such that after dilution, 50 μl of the enzyme solution in 300 mM NaCl, 50 mM NaH2PO4, 30% glycerol pH 7.5, remained in each well. To each well was added 50 μl of TSB and 100 μl of S. aureus Newman in TSB (diluted to 5×10^6 cells/ml). The plates were incubated 20 h at 37° C. and read with a 96 well plate reader. MIC determination values were reported as the median of ≧4 replicates (Table 1).

[2] = test system: S. aureus Newman; assay: Minimum Inhibitory Concentration (MIC) assay; type: cell-based
Description: as §1

[3] = test system: N315 (NRS 70); assay: Minimum Inhibitory Concentration (MIC) assay; type: cell-based, S. aureus
Description: as §1

[4] = test system: NRS 192; assay: Minimum Inhibitory Concentration (MIC) assay; type: cell-based, S. aureus
Description: as §1

[5] = test system: NRS 193; assay: Minimum Inhibitory Concentration (MIC) assay; type: cell-based, S. aureus
Description: as §1

[6] = test system: NRS 194; assay: Minimum Inhibitory Concentration (MIC) assay; type: cell-based, S. aureus
Description: as §1

[7] = test system: NRS 209; assay: Minimum Inhibitory Concentration (MIC) assay; type: cell-based, S. aureus
Description: as §1

[8] = test system: NRS 271; assay: Minimum Inhibitory Concentration (MIC) assay; type: cell-based, S. aureus
Description: as §1

[9] = test system: Sanger 252 (NRS 71); assay: Minimum Inhibitory Concentration (MIC) assay; type: cell-based, S. aureus
Description: as §1

[10] = test system: USA 100 (NRS 382); assay: Minimum Inhibitory Concentration (MIC) assay; type: cell-based, S. aureus
Description: as §1

[11] = test system: USA 200 (NRS 383); assay: Minimum Inhibitory Concentration (MIC) assay; type: cell-based, S. aureus
Description: as §1

[12] = test system: USA 300 (NRS 384); assay: Minimum Inhibitory Concentration (MIC) assay; type: cell-based, S. aureus
Description: as §1

[13] = test system: USA 400 (NRS 123); assay: Minimum Inhibitory Concentration (MIC) assay; type: cell-based, S. aureus
Description: as §1

[14] = test system: USA 500 (NRS 385); assay: Minimum Inhibitory Concentration (MIC) assay; type: cell-based, S. aureus
Description: as §1

[15] = test system: USA 600 (NRS 22); assay: Minimum Inhibitory Concentration (MIC) assay; type: cell-based, S. aureus
Description: as §1

[16] = test system: S. epidermidis MP04; assay: Minimum Inhibitory Concentration (MIC) assay; type: cell-based, Staphylococcus epidermidis; conditions: Mastitis isolate S. epidermidis MP04
[17] = test system: S. xylosus MP05; assay: Minimum Inhibitory Concentration (MIC) assay; type: cell-based, Staphylococcus xylosus; conditions: Mastitis isolate S. xylosus MP05
[18] = test system: S. aureus strain Newman; assay: Resistance development, plate lysis repeated exposure method; type: cell-based; conditions: not shown
Description: For the plate lysis assays, purified enzymes were serially diluted in saline lysis buffer (SLB; 150 mM NaCl 10 mM Tris buffer, pH 7.5) with 15% glycerol, to yield concentrations of 100, 10, 1, and 0.1 pmoles/10 μl. S. aureus Newman was cultivated in tryptic soy broth (TSB) to an OD600 nm=0.4-0.6. The bacterial cells were harvested and diluted to yield a suspension with an OD600 nm of 0.1. Tryptic soy agar (TSA) plates were flooded with 3 ml of the bacterial cell suspension. Excess culture was removed, and the plates were air dried at room temperature for ˜30 min in a laminar flow hood. 10 μl of each peptidoglycan hydrolase dilution was then spotted onto the air-dried lawn, allowed to air dry, and the culture plates incubated overnight at 37° C. The following day, plates were evaluated visually and photographed.
In the Plate lysis method, bacterial cells were scraped from a sub-lethal (not fully cleared) spot from a plate lysis assay (described above), and these ‘exposed’ cells were used to inoculate 5 ml of TSB and grown for 4-6 hours to generate a new culture and lawn for subsequent exposure. Bacteria were passaged in this assay for up to 10 consecutive days, at which time the S. aureus were tested in MIC assays. Plate lysis repeated exposure experiments were performed in duplicate.

[19] = test system: S. aureus SA113 biofilms; assay: Static biofilm reduction model; type: cell-based; conditions: 1 h treatment, compared to buffer treated biofilms
Description: S. aureus SA113 biofilms were treated for 1 h with 100 μl of each enzyme individually or as equimolar mixtures of LysK and lysostaphin (white bars) in 300 mM NaCl, 50 mM NaH2PO4, 30% glycerol. Constructs are named as in FIG. 1a. Results are reported as the percentage reduction in biofilm compared to buffer treated biofilms. Data presented represents 4 replicates. Values represent means±[…]. Asterisks indicate significant differences (single factor ANOVA with t-test post hoc analysis Sidák correction) as compared to LysK (K) at that concentration. Adjusted alpha p<0.026. Peptidoglycan hydrolase constructs: lysostaphin (L), LysK (K), triple fusion K-L, and triple fusion (L-K), as named in FIG. 1a.
In the static biofilm reduction model, biofilms were produced as previously described (Gross et al. 2001. Infect. Immun. 69:3423-3426) with the following modifications. S. aureus strains were grown overnight in 5 ml TSB supplemented with 0.25% D(+)-glucose without shaking at 37° C. The culture was diluted 1/200 in fresh culture medium, and 200 μl was added to each well of a 96 well microtiter plate and incubated without shaking for 24 h at 37° C. Biofilms in the wells were washed twice with 200 μl SLB, treated with […] peptidoglycan hydrolase (Lysostaphin, LysK and the triple fusion proteins K-L and L-K) in SLB at concentrations indicated (FIG. 4) for 1 h at room temperature, and washed twice with 100 μl SLB. Adherent bacteria were fixed with 200 μl 95% ethanol-5% glacial acetic acid for 20 min, washed once with water, and stained with 100 μl 0.4% crystal violet for 15 min at room temperature. Excess stain was removed with 3 water washes. Bound stain was resolubilized in 33% acetic acid, and 20 μl was transferred to a 96 well plate containing 180 μl water. The OD590nm was determined in a Spectra Max plate reader. Percent reduction represents the difference in absorbance between biofilms exposed to buffer only and experimental wells that were exposed to the peptidoglycan hydrolases.
Static biofilms were created with S. aureus strain SA113 in 96 well dishes and treated for one hour with 100 μl of the indicated concentrations of each enzyme individually or as an equimolar mixture of LysK and lysostaphin.

B1: L-K: LysK lytic domains inserted between lysostaphin's M23 endopeptidase domain and SH3b cell wall binding domain; SEQ ID NO:7, protein SEQ ID NO:8 (protein)
chain: MAATHEHSAQWLNNYKKGYGYGPYPLGINGGMHYGVDFFMNIGTPVKAISSGKIVEAGWSNYGGGNQIGLIENDGVHRQWYMHLSKYNVKVGDYVKAGQIIGWSGSTGYSTAPHLHFQRMVNSFSNSTAQDPMPFLKSAGYGKAGGTVTPTPNTGLDAKTQAEINKRLDAYAKGTVDSPYRVKKATSYDPSFGVMEAGAIDADGYYHAQCQDLITDYVLWLTDNKVRTWGNAKDQIKQSYGTGFKIHENKPSTVPKKGWIAVFTSGSYEQWGHIGIVYDGGNTSTFTILEQNWNGYANKKPTKRVDNYYGLTHFIEIPVKAGTTVKKETAKKSASKTPAPKKKATLKVSKNHINYTMDKRGKKPEGMVIHNDAGRSSGQQYENSLANAGYARYANGIAHYYGSEGYVWEAIDAKNQIAWHTGDGTGANSGNFRFAGIEVCQSMSASDAQFLKNEQAVFQFTAEKFKEWGLTPNRKTVRLHMEFVPTACPHRSMVLHTGFNPVTQGRPSQAIMNKLKDYFIKQIKNYMDKGTSSSTVVKDGKTSSASLDTVTPTPNTGWKTNKYGTLYKSESASFTPNTDIITRTTGPFRSMPQSGVLKAGQTIHYDEVMKQDGHVWVGYTGNSGQRIYLPVRTWNKSTNTLGVLWGTIKLEHHHHHH
modifications: Staphylococcus simulans & Phage K
Minimum Inhibitory Conc. (median μg/ml) [1]: 12 µg/mL
Minimum Inhibitory Conc. (median μg/ml) ([2]; S. aureus Newman): 7.8 µg/mL
First exposure MIC ([2]; first exposure of the resistance development experiment, FIG. 1b): 7.8 µg/mL
First exposure MIC ([2]; first exposure, molar concentration in brackets): 0.107 µM
Minimum Inhibitory Conc. (median μg/ml) [3]: 16 µg/mL
Minimum Inhibitory Conc. (median μg/ml) [4]: 16 µg/mL
Minimum Inhibitory Conc. (median μg/ml) [5]: 12 µg/mL
Minimum Inhibitory Conc. (median μg/ml) [6]: 12 µg/mL
Minimum Inhibitory Conc. (median μg/ml) [7]: 12 µg/mL
Minimum Inhibitory Conc. (median μg/ml) [8]: 9.8 µg/mL
Minimum Inhibitory Conc. (median μg/ml) [9]: 6.8 µg/mL
Minimum Inhibitory Conc. (median μg/ml) [10]: 20 µg/mL
Minimum Inhibitory Conc. (median μg/ml) [11]: 5.9 µg/mL
Minimum Inhibitory Conc. (median μg/ml) [12]: 20 µg/mL
Minimum Inhibitory Conc. (median μg/ml) [13]: 16 µg/mL
Minimum Inhibitory Conc. (median μg/ml) [14]: 12 µg/mL
Minimum Inhibitory Conc. (median μg/ml) [15]: 6.8 µg/mL
Minimum Inhibitory Conc. (median μg/ml) [16]: 4.2 µg/mL
Minimum Inhibitory Conc. (median μg/ml) [17]: 4.0 µg/mL
increased resistance during 10 rounds of sub-lethal exposure in plate lysis assays [18]: no detectable increase in resistance
static biofilm reduction (in words) [19]: effectively reduced staphylococcal biofilms
